Test results from publication PMC10853514, “Autoinhibition and activation of myosin VI revealed by its cryo-EM structure” (Nature Communications, 2024).

Experiments:
[1] = target: T1, calmodulin (CaM), light chain of myosin VI (UniProt P0DP23 1-149); assay: cryo-EM structure; single-particle cryo-EM of myosin VI/CaM in PB, TB + AMPPNP and PB + ATP, the three datasets combined; autoinhibited state, 3.54 Å (4.14 Å map with the SAH-E); details: both partners purified
T1 construct: calmodulin, the light chain of myosin VI; Two copies stand in the structure: CaM1 on Insert2 (with four Ca2+ ions) and CaM2 on the IQ motif; also called CaM1; CaM2; source: HEK293-F, co-transfected with myosin VI, co-purified

[2] = target: T2, myosin VI motor domain (MD), aa 1-789 (human, UniProt Q9UM54-1 1-789); assay: SEC; analytical SEC at 16 °C in PB (20 mM Na2HPO4/NaH2PO4 pH 7.4, 60 mM NaCl, 1 mM EGTA, 2 mM DTT, 2 mM MgCl2); 3.0 μM of the MD and CBD1 proteins; details: both partners purified
T2 construct: myosin VI, human, motor domain aa 1-789; The methods say that myosin VI or its mutants were co-transfected with CaM; also called the MD; source: HEK293-F (pCAG vector), purified

Row | binding result [1] | binding result [2] | Binder
1 | binds |  | human myosin VI heavy chain, full length, containing both the large-insertion (LI) and small-insertion (SI) regions (natural protein, myosin VI, human, full length with both the alternatively spliced LI and SI regions; codon-optimised synthetic gene; also called the heavy chain; source: HEK293-F, co-transfected with CaM, purified (Flag resin, size exclusion)) MEDGKPVWAPHPTDGFQMGNIVDIGPDSLTIEPLNQKGKTFLALINQVFPAEEDSKKDVEDNCSLMYLNEATLLHNIKVRYSKDRIYTYVANILIAVNPYFDIPKIYSSEAIKSYQGKSLGTRPPHVFAIADKAFRDMKVLKMSQSIIVSGESGAGKTENTKFVLRYLTESYGTGQDIDDRIVEANPLLEAFGNAKTVRNNNSSRFGKFVEIHFNEKSSVVGGFVSHYLLEKSRICVQGKEERNYHIFYRLCAGASEDIREKLHLSSPDNFRYLNRGCTRYFANKETDKQILQNRKSPEYLKAGSMKDPLLDDHGDFIRMCTAMKKIGLDDEEKLDLFRVVAGVLHLGNIDFEEAGSTSGGCNLKNKSAQSLEYCAELLGLDQDDLRVSLTTRVMLTTAGGTKGTVIKVPLKVEQANNARDALAKTVYSHLFDHVVNRVNQCFPFETSSYFIGVLDIAGFEYFEHNSFEQFCINYCNEKLQQFFNERILKEEQELYQKEGLGVNEVHYVDNQDCIDLIEAKLVGILDILDEENRLPQPSDQHFTSAVHQKHKDHFRLTIPRKSKLAVHRNIRDDEGFIIRHFAGAVCYETTQFVEKNNDALHMSLESLICESRDKFIRELFESSTNNNKDTKQKAGKLSFISVGNKFKTQLNLLLDKLRSTGASFIRCIKPNLKMTSHHFEGAQILSQLQCSGMVSVLDLMQGGYPSRASFHELYNMYKKYMPDKLARLDPRLFCKALFKALGLNENDYKFGLTKVFFRPGKFAEFDQIMKSDPDHLAELVKRVNHWLTCSRWKKVQWCSLSVIKLKNKIKYRAEACIKMQKTIRMWLCKRRHKPRIDGLVKVGTLKKRLDKFNEVVSVLKDGKPEMNKQIKNLEISIDTLMAKIKSTMMTQEQIQKEYDALVKSSEELLSALQKKKQQEEEAERLRRIQEEMEKERKRREEDEKRRRKEEEERRMKLEMEAKRKQEEEERKKREDDEKRIQAEVEAQLARQKEEESQQQAVLEQERRDRELALRIAQSEAELISDEAQADLALRRNDGTRPKMTPEQMAKEMSEFLSRGPAVLATKAAAGTKKYDLSKWKYAELRDTINTSCDIELLAACREEFHRRLKVYHAWKSKNKKRNTETEQRAPKSVTDYDFAPFLNNSPQQNPAAQIPARQREIEMNRQQRFFRIPFIRPADQYKDPQSKKKGWWYAHFDGPWIARQMELHPDKPPILLVAGKDDMEMCELNLEETGLTRKRGAEILPRQFEEIWERCGGIQYLQNAIESRQARPTYATAMLQSLLK
2 |  | binds | myosin VI cargo-binding domain 1 (CBD1), aa 1072-1158 (domain or fragment, human, UniProt Q9UM54-1 1072-1158, looked up, myosin VI, human, CBD1 aa 1072-1158, numbers of the form with LI and SI; also called the CBD1; source: E. coli BL21(DE3), purified (Ni-NTA, size exclusion)) TKKYDLSKWKYAELRDTINTSCDIELLAACREEFHRRLKVYHAWKSKNKKRNTETEQRAPKSVTDYDFAPFLNNSPQQNPAAQIPAR
